Values belong to the binder of their own block, whether it stands above or below them.
What was measured:
Test in all cases: holdup assay
Design in all cases: key: below the threshold = too weak to quantify, mostly under pKd 3.1 to 4
[1] = biological target: HTRA2, O43464
[2] = biological target: T1, PDZD7_3, Q9H5P4
T1 sequence (Q9H5P4 857-944, limits assumed, looked up): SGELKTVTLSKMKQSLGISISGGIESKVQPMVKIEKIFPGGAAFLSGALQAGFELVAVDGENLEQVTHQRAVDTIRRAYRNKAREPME

[3] = biological target: T2, TIAM2, Q8IVF5
T2 sequence (Q8IVF5 885-986, limits assumed, looked up): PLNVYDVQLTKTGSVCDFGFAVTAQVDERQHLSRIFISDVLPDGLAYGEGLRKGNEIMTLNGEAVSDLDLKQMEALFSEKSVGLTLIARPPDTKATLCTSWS

[4] = biological target: LNX1_1, Q8TBB1
[5] = biological target: GOPC, Q9HD26
[6] = biological target: T3, ARHGAP21, Q5T5U3
T3 sequence (Q5T5U3 45-169, limits assumed, looked up): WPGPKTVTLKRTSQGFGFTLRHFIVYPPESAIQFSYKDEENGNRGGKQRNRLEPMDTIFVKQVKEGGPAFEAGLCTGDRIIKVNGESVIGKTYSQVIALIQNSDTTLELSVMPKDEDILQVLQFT

[7] = biological target: T4, DLG3_3, Q92796
T4 sequence (Q92796 374-475, limits assumed, looked up): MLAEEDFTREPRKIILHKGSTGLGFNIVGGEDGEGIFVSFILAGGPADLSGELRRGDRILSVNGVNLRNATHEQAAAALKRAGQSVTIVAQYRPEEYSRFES

[8] = biological target: MAGI2_4, Q86UL8
[9] = biological target: IL16_1, Q14005
[10] = biological target: DLG1_1, Q12959
[11] = biological target: T5, SHANK1, Q9Y566
T5 sequence (Q9Y566 658-767, limits assumed, looked up): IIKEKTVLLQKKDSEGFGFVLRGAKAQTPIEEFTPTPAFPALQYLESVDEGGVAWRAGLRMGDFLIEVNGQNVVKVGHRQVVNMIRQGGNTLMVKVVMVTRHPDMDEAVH

[12] = biological target: MAST1, Q9Y2H9
[13] = biological target: T6, MPDZ_12, O75970
T6 sequence (O75970 1857-1958, limits assumed, looked up): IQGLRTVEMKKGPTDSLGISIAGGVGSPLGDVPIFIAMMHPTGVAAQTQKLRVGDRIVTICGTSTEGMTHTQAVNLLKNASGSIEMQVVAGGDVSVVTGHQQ

[14] = biological target: PTPN3, P26045
[15] = biological target: LDB3, O75112
[16] = biological target: T7, LIN7B, Q9HAP6
T7 sequence (Q9HAP6 88-185, limits assumed, looked up): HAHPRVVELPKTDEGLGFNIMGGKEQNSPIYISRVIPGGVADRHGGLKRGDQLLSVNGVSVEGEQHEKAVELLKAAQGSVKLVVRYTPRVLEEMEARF

[17] = biological target: SCRIB_3, Q14160
[18] = biological target: T8, PDZRN3_1, Q9UPQ7
T8 sequence (Q9UPQ7 244-349, limits assumed, looked up): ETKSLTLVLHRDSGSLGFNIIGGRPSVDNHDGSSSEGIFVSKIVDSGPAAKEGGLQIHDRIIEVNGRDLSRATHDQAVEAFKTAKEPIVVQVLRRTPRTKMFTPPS

[19] = biological target: T9, DFNB31_1, Q9P202
T9 sequence (Q9P202 135-233, limits assumed, looked up): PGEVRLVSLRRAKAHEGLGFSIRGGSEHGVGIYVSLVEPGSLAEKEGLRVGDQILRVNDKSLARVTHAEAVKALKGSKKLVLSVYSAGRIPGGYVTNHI

[20] = biological target: PARD3_3, Q8TEW0
[21] = biological target: SCRIB_2, Q14160
[22] = biological target: T10, MPP7, Q5T2T1
T10 sequence (Q5T2T1 134-230, limits assumed, looked up): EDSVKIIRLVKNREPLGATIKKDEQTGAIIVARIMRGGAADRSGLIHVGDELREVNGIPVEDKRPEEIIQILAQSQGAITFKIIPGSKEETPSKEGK

[23] = biological target: T11, RHPN1, Q8TCX5
T11 sequence (Q8TCX5 508-602, limits assumed, looked up): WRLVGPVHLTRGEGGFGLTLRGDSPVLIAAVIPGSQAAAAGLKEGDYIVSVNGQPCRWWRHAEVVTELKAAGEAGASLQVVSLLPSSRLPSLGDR

[24] = biological target: T12, DLG3_1, Q92796
T12 sequence (Q92796 125-227, limits assumed, looked up): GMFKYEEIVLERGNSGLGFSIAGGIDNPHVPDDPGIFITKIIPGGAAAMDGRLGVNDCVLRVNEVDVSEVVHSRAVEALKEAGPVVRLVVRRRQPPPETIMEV

[25] = biological target: ARHGEF12, Q9NZN5-2
[26] = plain residues with an end cap or a label only (N-terminal biotin on a linker: ado-ado)
[27] = modified: phospho on T at position -1 from the C-terminal residue

Chain of MAGI2_4, Q86UL8 (Q86UL8 772-865): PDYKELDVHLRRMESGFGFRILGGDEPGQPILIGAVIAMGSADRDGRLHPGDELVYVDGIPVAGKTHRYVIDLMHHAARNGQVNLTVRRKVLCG
Chain of PARD3_3, Q8TEW0 (Q8TEW0 582-685): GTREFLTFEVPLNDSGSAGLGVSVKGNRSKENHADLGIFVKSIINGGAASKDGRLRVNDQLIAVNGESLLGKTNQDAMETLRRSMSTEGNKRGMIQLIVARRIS
Chain of SCRIB_3, Q14160 (Q14160 999-1103): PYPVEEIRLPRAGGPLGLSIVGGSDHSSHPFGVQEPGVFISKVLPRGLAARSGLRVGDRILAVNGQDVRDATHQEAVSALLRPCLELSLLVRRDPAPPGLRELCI
Chain of HTRA2, O43464 (O43464 355-458): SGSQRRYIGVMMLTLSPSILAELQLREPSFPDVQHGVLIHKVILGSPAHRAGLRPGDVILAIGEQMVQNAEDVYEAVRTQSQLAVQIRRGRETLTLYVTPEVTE
Chain of MAST1, Q9Y2H9 (Q9Y2H9 962-1065): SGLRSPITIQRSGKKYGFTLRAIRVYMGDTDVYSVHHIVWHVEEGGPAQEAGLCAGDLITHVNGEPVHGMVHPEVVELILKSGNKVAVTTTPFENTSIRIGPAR
Chain of ARHGEF12, Q9NZN5-2 (Q9NZN5 other isoform, or with tags, fused parts or gaps): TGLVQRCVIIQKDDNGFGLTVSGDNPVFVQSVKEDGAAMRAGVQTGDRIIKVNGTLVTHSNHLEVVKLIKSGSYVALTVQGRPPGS
Chain of PTPN3, P26045 (P26045 505-587): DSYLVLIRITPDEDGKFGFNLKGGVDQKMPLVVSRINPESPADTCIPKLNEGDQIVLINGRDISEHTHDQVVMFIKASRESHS
Chain of LDB3, O75112 (O75112 1-94): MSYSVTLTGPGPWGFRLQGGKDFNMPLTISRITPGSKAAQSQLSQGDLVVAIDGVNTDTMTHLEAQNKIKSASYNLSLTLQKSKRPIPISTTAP
Chain of LNX1_1, Q8TBB1 (Q8TBB1 261-371): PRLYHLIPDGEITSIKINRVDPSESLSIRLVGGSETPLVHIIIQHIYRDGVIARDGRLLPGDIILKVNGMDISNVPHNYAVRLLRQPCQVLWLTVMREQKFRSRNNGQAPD
Chain of IL16_1, Q14005 (Q14005 210-306): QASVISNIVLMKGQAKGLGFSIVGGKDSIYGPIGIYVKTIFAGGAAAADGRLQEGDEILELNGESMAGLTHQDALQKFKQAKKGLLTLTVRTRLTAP
Chain of SCRIB_2, Q14160 (Q14160 857-960): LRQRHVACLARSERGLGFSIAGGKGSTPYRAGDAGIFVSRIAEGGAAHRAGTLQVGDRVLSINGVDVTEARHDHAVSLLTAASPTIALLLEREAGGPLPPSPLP

- pKd [1, 26]: below the threshold
- pKd [2, 26]: 4.71
- pKd [3, 26]: below the threshold
- pKd [4, 26]: 3.67
- pKd [5, 26]: below the threshold
- pKd [6, 26]: 3.72
- pKd [7, 26]: below the threshold
- pKd [8, 26]: below the threshold
- pKd [9, 26]: below the threshold
- pKd [10, 26]: below the threshold
- pKd [11, 26]: 3.86
- pKd [12, 26]: 4.49
- pKd [13, 26]: below the threshold
- pKd [14, 26]: 4.82
- pKd [15, 26]: below the threshold
- pKd [16, 26]: below the threshold
- pKd [17, 26]: 4.39
- pKd [18, 26]: 4.13
- pKd [19, 26]: below the threshold
- pKd [20, 26]: below the threshold
- pKd [21, 26]: below the threshold
- pKd [22, 26]: below the threshold
- pKd [23, 26]: 3.66
- pKd [24, 26]: below the threshold
- pKd [25, 26]: 4.91
B1: SH2D3C, Q8N5H7 (peptide)
chain: LEPAVRSSEL

- pKd [1, 26]: below the threshold
- pKd [2, 26]: 4.54
- pKd [3, 26]: 4.04
- pKd [4, 26]: below the threshold
- pKd [5, 26]: 3.86
- pKd [6, 26]: below the threshold
- pKd [7, 26]: below the threshold
- pKd [8, 26]: below the threshold
- pKd [9, 26]: below the threshold
- pKd [10, 26]: below the threshold
- pKd [11, 26]: 5.33
- pKd [12, 26]: 4.55
- pKd [13, 26]: 3.73
- pKd [14, 26]: 4.62
- pKd [15, 26]: below the threshold
- pKd [16, 26]: below the threshold
- pKd [17, 26]: 4.14
- pKd [18, 26]: 3.79
- pKd [19, 26]: 3.73
- pKd [20, 26]: below the threshold
- pKd [21, 26]: below the threshold
- pKd [22, 26]: below the threshold
- pKd [23, 26]: 3.96
- pKd [24, 26]: below the threshold
- pKd [25, 26]: 4.97
B2: AKAP10, O43572 (peptide)
chain: DQPLEKSTKL

- pKd [1, 27]: 3.49
- pKd [2, 27]: 4.91
- pKd [3, 27]: 3.41
- pKd [4, 27]: 4.63
- pKd [5, 27]: 4.66
- pKd [6, 27]: below the threshold
- pKd [7, 27]: 3.63
- pKd [8, 27]: 4.32
- pKd [9, 27]: 3.46
- pKd [10, 27]: 3.82
- pKd [11, 27]: 4.06
- pKd [12, 27]: 4.5
- pKd [13, 27]: below the threshold
- pKd [14, 27]: 4.48
- pKd [15, 27]: 3.62
- pKd [16, 27]: 3.56
- pKd [17, 27]: 4.61
- pKd [18, 27]: 4.26
- pKd [19, 27]: 3.6
- pKd [20, 27]: 3.84
- pKd [21, 27]: 3.61
- pKd [22, 27]: 3.35
- pKd [23, 27]: 3.62
- pKd [24, 27]: 3.57
- pKd [25, 27]: 4.87
B3: RPS6KA1_-1P, Q15418 (peptide)
chain: RRVRKLPSTTL

From article PMC9482650, “Quantitative fragmentomics allow affinity mapping of interactomes” (Nature Communications, 2022)
